Test results: publication PMC5780489 (2018)

How the values were obtained:
[1] = biological target: T1, PABPC1 RRM1/2/3/4 (residues 1-370) (human, UniProt P11940 1-370); test: NMR; RRM1/2/3/4 bound to A24 RNA; T438 signal
[2] = biological target: T1, PABPC1 RRM1/2/3/4 (residues 1-370); test: NMR; RRM1/2/3/4 bound to A24 RNA; W437 signal

T1 sequence (P11940 1-370): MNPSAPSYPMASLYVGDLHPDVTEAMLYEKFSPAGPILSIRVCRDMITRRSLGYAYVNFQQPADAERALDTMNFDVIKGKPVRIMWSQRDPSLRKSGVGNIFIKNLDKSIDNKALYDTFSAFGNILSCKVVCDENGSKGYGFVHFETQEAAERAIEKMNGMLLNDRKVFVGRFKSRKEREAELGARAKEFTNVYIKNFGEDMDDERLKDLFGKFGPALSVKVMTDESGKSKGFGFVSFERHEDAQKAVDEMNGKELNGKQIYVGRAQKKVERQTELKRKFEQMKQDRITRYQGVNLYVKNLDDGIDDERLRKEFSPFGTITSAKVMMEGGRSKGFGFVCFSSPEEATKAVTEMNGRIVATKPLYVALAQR

## AYYPPSQIAQLRPSPRWTAQGARPHPFQNMPGAIRPAAPRPPFSTMRPAS [PABPC1 linker fragment Lt2 (residues 421-470)]
[1]
  Kd: 24 µM
[2]
  Kd: 12 µM
